Test results: the supplement of paper PMC9170038

Tested on: MS2 coat protein
Experiment: apparent KD of MS2 coat protein; designed switch direction (-1 OFF switch, 1 ON switch): -1; higher = weaker reporter binding
Method in brief: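 Each step of the titration lasted 0.8–1.5 h at the lowest concentration and 10–20 min at the highest. The protein, SNAP-549-labelled MS2 coat protein, went from 0.7 or 1.5 nM doubling to 3 µM over RNA switches transcribed on Illumina chips by stalled E. coli RNA polymerase. Normalised cluster fluorescence was curve-fitted, and the per-design median over clusters is given as apparent KD.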

[1] = input ligand: microRNA oligo, concentration not stated
[2] = Eterna round: R95, input ligand: FMN 200 uM
[3] = Eterna round: R95, input ligand: microRNA oligo, concentration not stated
[4] = Eterna round: R95, input ligand: none

Sequence	apparent KD of MS2 coat protein (input ligand: FMN 200 uM) [nM]	apparent KD of MS2 coat protein (input ligand: none) [nM]	apparent KD of MS2 coat protein [3] [nM]	other results
UGAGUGCUGCGAGGAUAUACAUGAGGAUCACCCAUGUGGAUCUGUGAGGCUUUGCCUCACAGGAUGUAGAAGGCGCAGUACUCU [JL ENG2 1.19] (Eterna round: R96, puzzle: Exclusion NG 2)	156	27.4		apparent KD of MS2 coat protein [1]: 17.8 nM
GGACCGUAAGGAUAUGGCACGAAUCGACAGUCGAUCUCGAGCUAGAAGGUACAUGAGGAUCACCCAUGUCCGUU [Eternabot (L1) Solution 13] (Eterna round: R97, puzzle: Exclusion 4)	25.4	19.2		
GAAUUAAUUAAUUAAUAAUACAUGAGGAUCACCCAUGUAGAUCCUACAUACAAUUUAAGUAGCUCGUCUUAUAAUUA [Stov1/1-A2] (Eterna round: R97, puzzle: Sensor, turn-off variant 1)	108	202		
AGGUUGUGAGGAUAUUAGUUAUAUGAUUGGAGGAGUAUGGCUGAGAAGGCACAUGAGGAUCACCCAUGUAGAUC [JR_Ex4_Sub048] (Eterna round: R97, puzzle: Exclusion 4)	555	162		
CCAAAGCGAGGAUAUACUUGCGACCCAAGCGUGGAAGACAUACUUGAGGAUCACCCAAGUAGAAGGCGCGCCAA [Dibixela] (Eterna round: R97, puzzle: Exclusion 2)	145	92		
UUAUAUAAUGUGAGGAUAUGCUGGUCCAUAGAUCAGCAGAAGGCACAUGAGGAUCACCCAUGUAGUAAAUUUUA [Mat - Exclusion 4 - JL Mod - D12] (puzzle: Brourd's mod of Exclusion 4)			14.5	apparent KD of MS2 coat protein [2]: 24.2 nM; apparent KD of MS2 coat protein [4]: 14.8 nM
AUGCGUGGCUAGGAUAUCGAGGAAUUUAGCCAGCGAGAAGGAGCCACAUGAGGAUCACCCAUGUGGUGAACCUU [jl-ex6-4.64 ViennaUCT mod] (Eterna round: R97, puzzle: Exclusion 6)	14.5	15.8		
GUAAGAUCCGUCAGGAUAUAUGCCCAAGGAGGGACGUAGAAGGGACAUGAGGAUCACCCAUGUACCUCAAGGAU [Eternabot (L1) Solution 97] (Eterna round: R97, puzzle: Brourd's mod of Exclusion 4)	17.6	16.1		
UACAUGAGGAUCACCCAUGUUUUGUCGUGUAUGGUAUUUAUCUAGGAUAUCAAUUUACUUAUUUAUGAGAAGGAGAAUAUUAAU [JMF's solution 19] (Eterna round: R96, puzzle: Exclusion NG 3)				apparent KD of MS2 coat protein [1]: 26.8 nM
UACUAUAAGGAGGAUAUCGUAUCGGAAACGAUACGAGAAGGCUUAACAUGAGGAUCACCCAUGUUCUUCAAUAA [Fiskers Ex 6 - 25] (puzzle: Exclusion 6)			16.2	
GUGUACGGAGGAUAUAUAUGGGCAGCAUACGCUGCAGCUUCACAUGAGGAUCACCCAUGUAGAAGGCUGUGCAC [JL-ex2-2.10 Brourd mod] (puzzle: Exclusion 2)			19.9	
CGGAUGUAAGGAUAUUAGUAGUAGUCAGAAAAGACUAUUACUGAGAAGGUACAUGAGGAUCACCCAUGUUUCCG [Mat - Exclusion 4 - Eli Mod - D43] (Eterna round: R97, puzzle: Exclusion 4)	20.5	15.8		
GGGCCCGGUGUGAGGAUAUUUCGAGUGAAAGCUUGAGAGAAGGCACAUGAGGAUCACCCAUGUAAGCCGGGCCC [-36.4, -34.3 kcal, A 26%, 1bis-0] (Eterna round: R97, puzzle: Brourd's mod of Exclusion 4)	15.1	17.8		
GUAGAGUCAGGAUAUACGGGAUCGAAAGAUCGGCGAUCCAUACAUGAGGAUCACCCAUGUAGAAGGGACUCUAC [Omei mod 10 to Eli's favorate candidate (ch.parushev)] (Eterna round: R97, puzzle: Exclusion 2)	189	22.7		
CGGCAACAUGUCAGGAUAUAUGUACCGCUGGGUGGAUAGAAGGGACAUGAGGAUCACCCAUGUCGUCCAGCCGG [Tisove] (puzzle: Brourd's mod of Exclusion 4)			12.6	apparent KD of MS2 coat protein [2]: 19.4 nM; apparent KD of MS2 coat protein [4]: 13.9 nM
AAUAACAGAGGAUAUACUAUUUUAUGUAUUUAUUAUUUUAAACAUGAGGAUCACCCAUGUAGAAGGCUGAAUGA [JMF 54] (puzzle: Exclusion 2)			21.6	apparent KD of MS2 coat protein [2]: 20.6 nM; apparent KD of MS2 coat protein [4]: 21.5 nM
ACCUCACUUGAGGAUCACCCAAGUCAGGAUAUACUCGUUUGCCGCACGACGCGGCAUUGUAGAAGGGACGGGCU [Soraedrale] (Eterna round: R97, puzzle: Exclusion 1)	34.1	18.1		
UAAAAGUCAGGAUAUGCGAGAGAUUGAAGUAUGGAAAGGUAGCAGAAGGGACAUGAGGAUCACCCAUGUGAGGA [JR_Exclu4_Sub095] (puzzle: Exclusion 4)			31.7	apparent KD of MS2 coat protein [2]: 51.1 nM; apparent KD of MS2 coat protein [4]: 29.5 nM
UCACGGGAUUGAGGAUAUAUAUUUAUUAUUUUAAUAGAAGGCAAAGAGUUAGUUUUUUCACUAUACAUGAGGAUCACCCAUGUU [JR_ExcNG1_Sub086] (Eterna round: R96, puzzle: Exclusion NG 1)				apparent KD of MS2 coat protein [1]: 23.2 nM
AGUACUAGCACGAAAGUGUUAGUACAAUAAGCUUGUGAAACAUGAGGAUCACCCAUGUCCUCAUAAGCUCGUCUUAU [salish99_TOv2_r3_020] (puzzle: Sensor v3, turn-off variant 2)			429	apparent KD of MS2 coat protein [2]: 18.2 nM; apparent KD of MS2 coat protein [4]: 16 nM
AAGAAACAUGAGGAUCACCCAUGUGAGGAUAUGAGGAAGAAAAGAAAAGAAAGAAGACUCAGAAGGCACAAAGG [salish99-ex1_r3_073] (puzzle: Exclusion 1)			49	apparent KD of MS2 coat protein [2]: 189 nM; apparent KD of MS2 coat protein [4]: 76.8 nM
GAGUUAACAUGAGGAAUAUACAUGAGGAUCACCCAUGUUAACAAAACUUUUGCUCGUCUUAUAACAACAAUUAACUC [Alarm 2 - Jieux - Sensor, turn-off variant 1] (Eterna round: R97, puzzle: Sensor, turn-off variant 1)	347	133		
GGUGCGUAUGUGAGGAUAUGCUGGUCCUUGGCUCGGCAGAAGGCACAUGAGGAUCACCCAUGUGGUGUCGUUCC [salish99_Bmod_ex4_055] (puzzle: Brourd's mod of Exclusion 4)			42.5	
